Where no end group is shown, it is not given here.

The nature of one data set: First-order nonenzymatic deamidation of pentapeptides in Tris buffer. It counts as physicochemical. The note with it: pH 7.4, 37.0° C., 0.15 M Tris HCl; Asn pentapeptides. The protocol: One of the discoveries made was that the sequence dependence of deamidation is much richer and covers a wider range than previously thought. In 37° C., pH 7.4, 0.15 M Tris buffer, the combination of XxxAsnYyy and XxxGlnYyy sequences where Xxx and Yyy are any of the naturally occuring amino acids covers a range from less than 1 day to over 15,000 days with the entire range in between available.
It is based on pentapeptide rates measure in 37° C., pH 7.4, 0.15 M Tris buffer. The applicability of a pentapeptide model to sequence dependence was verified in a separate set of experiments. All values listed in this table are experimental except for the four values in boxes, which were estimated from the rest of the data.
It is also based on pentapeptide rates measure in 37° C., pH 7.4, 0.15 M Tris buffer. In this case, the 52 values shown in bold were measured, and the rest of the values were derived from surface fitting.
Deamidation rates are affected by a wide variety of parameters, including, pH, Temperature, Ionic Strength, and Buffer Ions. These rates are measured under pH and Temperature conditions that are applicable to biological systems. The buffer type and concentration were chosen to minimize ion affects to the extent possible given the experimental limitations. Modification of these conditions will change the rates in Tables 1 and 2. As long as the conditions are not taken to extremes (i.e. high temperature, or strongly acidic or basic conditions) the qualitative sequence dependence should remain the same and the rates reported here can be used with necessary adjustments.
“GlyMetAsnAspGly (GMNDG; printed: GlyMetAsnAspGly)”: the “First-Order Deamidation Halftimes of GlyXxxAsnYyyGly” value came out at 26.4 days.
In the case of “GlyLysAsnAspGly (GKNDG; printed: GlyLysAsnAspGly)”, the “First-Order Deamidation Halftimes of GlyXxxAsnYyyGly” value came to 34.0 days.
On the same count and under the same terms, for “GlyAmCysAsnTyrGly (CNYG; not fully specified (N-terminus); printed as GlyAmCysAsnTyrGly; also: glycinamide shown before Cys, linkage not given here)” the value was 78.8 days; for “GlyProAsnPheGly (GPNFG; printed: GlyProAsnPheGly)”, 100 days; for “GlyAspAsnProGly (GDNPG; printed: GlyAspAsnProGly)”, 11800 days.
Same read-out and setting: under “GlyHisAsnTyrGly (GHNYG; printed: GlyHisAsnTyrGly)” stands 82.3 days; under “GlyGlyAsnArgGly (GGNRG; printed: GlyGlyAsnArgGly)”, 57.8 days; under “GlyCysAsnGluGly (GCNEG; printed: GlyCysAsnGluGly)”, 48.3 days.
The same measure, in the same setting: for “GlyValAsnTrpGly (GVNWG; printed: GlyValAsnTrpGly)” the value was 88.9 days.
In the case of “GlyProAsnHisGly (GPNHG; printed: GlyProAsnHisGly)”, the “First-Order Deamidation Halftimes of GlyXxxAsnYyyGly” value came to 12.8 days.
Turning to “GlyMetAsnTrpGly (GMNWG; printed: GlyMetAsnTrpGly)”, the “First-Order Deamidation Halftimes of GlyXxxAsnYyyGly” value is listed as 92.7 days.
Still for that read-out and setting: for “GlyGlyAsnGluGly (GGNEG; printed: GlyGlyAsnGluGly)” the value was 73.9 days; for “GlyGlyAsnValGly (GGNVG; printed: GlyGlyAsnValGly)”, 224 days.
Same read-out and setting: for “GlyGlyAsnCysGly (GGNCG; printed: GlyGlyAsnCysGly)” the value was 40.6 days; for “GlyTyrAsnValGly (GYNVG; printed: GlyTyrAsnValGly)”, 241 days.
On to “GlyAmCysAsnProGly (CNPG; not fully specified (N-terminus); printed as GlyAmCysAsnProGly)”, for which the “First-Order Deamidation Halftimes of GlyXxxAsnYyyGly” value is listed as 3900 days.
Regarding “GlyPheAsnArgGly (GFNRG; printed: GlyPheAsnArgGly)”, the “First-Order Deamidation Halftimes of GlyXxxAsnYyyGly” value was 61.2 days.
The same measure, in the same setting: for “GlyHisAsnMetGly (GHNMG; printed: GlyHisAsnMetGly)” the value was 63.1 days.
For the substance “GlyGluAsnTyrGly (GENYG; printed: GlyGluAsnTyrGly)”, the “First-Order Deamidation Halftimes of GlyXxxAsnYyyGly” value amounted to 94.5 days.
On the same count and under the same terms, under “GlyAmCysAsnValGly (CNVG; not fully specified (N-terminus); printed as GlyAmCysAsnValGly; also: glycinamide shown before Cys, linkage not given here)” stands 215 days; under “GlyAmCysAsnAspGly (CNDG; not fully specified (N-terminus); printed as GlyAmCysAsnAspGly)”, 32.9 days.
Still for that read-out and setting: under “GlyAspAsnThrGly (GDNTG; printed: GlyAspAsnThrGly)” stands 52.4 days; under “GlyProAsnMetGly (GPNMG; printed: GlyProAsnMetGly)”, 78.4 days; under “GlyValAsnGlyGly (GVNGG; printed: GlyValAsnGlyGly)”, 1.23 days.
As for “GlyTrpAsnMetGly (GWNMG; printed: GlyTrpAsnMetGly)”, the “First-Order Deamidation Halftimes of GlyXxxAsnYyyGly” value was determined as 64.2 days.

Still in this data set, the particulars now being: pH 7.4, 37.0 ° C., 0.15 M Tris HCl; Gln pentapeptides; 52 values measured, rest derived from surface fitting.
As for “GlyAlaGlnGluGly (GAQEG; printed: GlyAlaGlnGluGly)”, the “First-Order Deamidation Halftimes of GlyXxxGlnYyyGly” value is 7300 days.
“GlyIleGlnTyrGly (GIQYG; printed: GlyIleGlnTyrGly)”: the “First-Order Deamidation Halftimes of GlyXxxGlnYyyGly” value was found to be 12000 days.
On the same count and under the same terms, under “GlyAlaGlnPheGly (GAQFG; printed: GlyAlaGlnPheGly)” stands 7500 days.
Same read-out and setting: for “GlyLysGlnLeuGly (GKQLG; printed: GlyLysGlnLeuGly)” the value was 5300 days; for “GlyAspGlnLeuGly (GDQLG; printed: GlyAspGlnLeuGly)”, 6200 days.
“GlyArgGlnLysGly (GRQKG; printed: GlyArgGlnLysGly)”: the “First-Order Deamidation Halftimes of GlyXxxGlnYyyGly” value turned out to be 4000 days.
Same read-out and setting: under “GlyValGlnIleGly (GVQIG; printed: GlyValGlnIleGly)” stands 5600 days; under “GlyMetGlnPheGly (GMQFG; printed: GlyMetGlnPheGly)”, 6600 days; under “GlyPheGlnAspGly (GFQDG; printed: GlyPheGlnAspGly)”, 8200 days.
Consider “GlyGlyGlnMetGly (GGQMG; printed: GlyGlyGlnMetGly)”, for which the “First-Order Deamidation Halftimes of GlyXxxGlnYyyGly” value was found to be 4500 days.
As to “GlySerGlnIleGly (GSQIG; printed: GlySerGlnIleGly)”, the “First-Order Deamidation Halftimes of GlyXxxGlnYyyGly” value is 5900 days.
The same measure, in the same setting: for “GlyTrpGlnAlaGly (GWQAG; printed: GlyTrpGlnAlaGly)” the value was 7400 days; for “GlyMetGlnArgGly (GMQRG; printed: GlyMetGlnArgGly)”, 5100 days.
Still for that read-out and setting: under “GlyAlaGlnValGly (GAQVG; printed: GlyAlaGlnValGly)” stands 6400 days; under “GlyTrpGlnLysGly (GWQKG; printed: GlyTrpGlnLysGly)”, 7600 days.
Still for that read-out and setting: under “GlyValGlnLysGly (GVQKG; printed: GlyValGlnLysGly)” stands 5200 days; under “GlyGlyGlnProGly (GGQPG; printed: GlyGlyGlnProGly)”, 10000 days; under “GlyCysGlnGluGly (GCQEG; printed: GlyCysGlnGluGly)”, 5600 days.
Regarding “GlyLysGlnArgGly (GKQRG; printed: GlyLysGlnArgGly)”, the “First-Order Deamidation Halftimes of GlyXxxGlnYyyGly” value is 2300 days.
The same measure, in the same setting: under “GlyLysGlnCysGly (GKQCG; printed: GlyLysGlnCysGly)” stands 1000 days; under “GlyThrGlnGlyGly (GTQGG; printed: GlyThrGlnGlyGly)”, 670 days.
The same measure, in the same setting: for “GlySerGlnProGly (GSQPG; printed: GlySerGlnProGly)” the value was 10000 days; for “GlyArgGlnGluGly (GRQEG; printed: GlyArgGlnGluGly)”, 5400 days.
Same read-out and setting: for “GlyThrGlnMetGly (GTQMG; printed: GlyThrGlnMetGly)” the value was 3700 days; for “GlyMetGlnGluGly (GMQEG; printed: GlyMetGlnGluGly)”, 5800 days.
